# Laboratory results taken from article PMC9186393.
# What was measured:
# [1] = target: U2AF65 E425A (UniProt P26369 1-475, E425A); experiment: EMSA
# [2] = target: U2AF65 WT (UniProt P26369 1-475); experiment: EMSA
# U2AF65 WT, sequence (P26369 whole entry, one chain of several): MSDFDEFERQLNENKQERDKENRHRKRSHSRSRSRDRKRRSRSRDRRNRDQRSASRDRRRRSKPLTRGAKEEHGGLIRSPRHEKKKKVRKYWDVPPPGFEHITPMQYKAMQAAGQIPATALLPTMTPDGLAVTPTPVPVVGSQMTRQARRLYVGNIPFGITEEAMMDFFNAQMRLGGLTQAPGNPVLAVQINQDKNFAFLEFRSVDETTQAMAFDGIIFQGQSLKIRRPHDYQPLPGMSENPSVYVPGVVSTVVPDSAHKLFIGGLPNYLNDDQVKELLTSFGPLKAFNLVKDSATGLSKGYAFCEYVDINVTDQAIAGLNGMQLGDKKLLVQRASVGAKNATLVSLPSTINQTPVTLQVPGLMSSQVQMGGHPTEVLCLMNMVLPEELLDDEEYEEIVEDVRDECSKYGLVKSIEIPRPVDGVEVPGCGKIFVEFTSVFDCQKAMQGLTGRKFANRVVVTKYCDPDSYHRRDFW
# U2AF65 E425A, sequence (P26369 whole entry E425A, one chain of several): as the sequence (P26369 whole entry, one chain of several) above, with E425A counted along it
Binder,binding result [1],binding result [2]
CCUGCUUUUUUCCCUUUUAAGGCCUCGAUCCA (ssRNA) [U2 LPL 3' splice site],binds,binds
CUUAACUCCUCUCUACAGU (ssRNA) [U12 Scn8a 3' splice site],no binding,no binding
